In patent publication US20060100138:

How the values were obtained:
[1] = test system: Synthetic human type I collagen
[2] = test system: Synthetic human type III collagen
Sequence of Synthetic human type III collagen (chain, as listed by the source): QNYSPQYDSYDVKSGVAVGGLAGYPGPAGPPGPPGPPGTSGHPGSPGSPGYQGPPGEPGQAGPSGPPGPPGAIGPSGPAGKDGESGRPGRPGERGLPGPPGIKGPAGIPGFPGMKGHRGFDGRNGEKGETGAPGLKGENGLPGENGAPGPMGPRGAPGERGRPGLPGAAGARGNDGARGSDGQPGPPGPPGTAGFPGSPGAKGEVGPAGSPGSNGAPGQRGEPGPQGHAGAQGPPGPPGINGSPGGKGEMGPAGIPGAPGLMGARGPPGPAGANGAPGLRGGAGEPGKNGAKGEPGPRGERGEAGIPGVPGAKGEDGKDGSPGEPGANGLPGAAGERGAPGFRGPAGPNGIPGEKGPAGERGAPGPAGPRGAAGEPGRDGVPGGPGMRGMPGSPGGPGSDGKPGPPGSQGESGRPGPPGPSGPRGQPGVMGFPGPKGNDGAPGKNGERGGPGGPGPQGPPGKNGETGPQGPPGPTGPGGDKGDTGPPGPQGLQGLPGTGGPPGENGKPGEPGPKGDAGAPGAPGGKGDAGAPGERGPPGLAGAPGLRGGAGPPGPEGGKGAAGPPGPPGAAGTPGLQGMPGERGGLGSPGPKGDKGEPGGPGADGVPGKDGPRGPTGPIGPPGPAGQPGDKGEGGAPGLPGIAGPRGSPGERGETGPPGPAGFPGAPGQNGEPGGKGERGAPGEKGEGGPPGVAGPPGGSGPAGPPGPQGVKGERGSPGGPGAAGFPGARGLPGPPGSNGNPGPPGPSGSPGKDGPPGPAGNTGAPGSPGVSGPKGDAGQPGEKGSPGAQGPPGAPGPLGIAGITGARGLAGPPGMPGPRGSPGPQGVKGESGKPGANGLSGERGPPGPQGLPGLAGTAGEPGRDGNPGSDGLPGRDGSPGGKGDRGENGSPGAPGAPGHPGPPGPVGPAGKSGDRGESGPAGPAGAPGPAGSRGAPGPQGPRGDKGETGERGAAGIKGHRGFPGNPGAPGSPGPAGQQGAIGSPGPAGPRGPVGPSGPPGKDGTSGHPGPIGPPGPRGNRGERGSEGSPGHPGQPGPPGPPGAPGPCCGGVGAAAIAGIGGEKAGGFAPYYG

Sequence of MMP-8 (collagenase 2, neutrophil collagenase) (chain, as listed by the source): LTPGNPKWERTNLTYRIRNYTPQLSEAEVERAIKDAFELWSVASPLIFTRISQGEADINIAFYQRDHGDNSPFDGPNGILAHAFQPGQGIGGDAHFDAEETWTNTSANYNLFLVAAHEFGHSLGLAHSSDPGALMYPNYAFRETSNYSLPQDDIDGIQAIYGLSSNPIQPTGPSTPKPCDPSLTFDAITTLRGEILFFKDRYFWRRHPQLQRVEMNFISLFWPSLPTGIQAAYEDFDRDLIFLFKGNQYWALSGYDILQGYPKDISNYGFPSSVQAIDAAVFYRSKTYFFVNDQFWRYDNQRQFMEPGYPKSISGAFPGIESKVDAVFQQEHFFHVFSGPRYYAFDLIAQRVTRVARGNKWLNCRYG
Sequence of Synthetic human type I collagen (chain, as listed by the source, chain 1 of 2): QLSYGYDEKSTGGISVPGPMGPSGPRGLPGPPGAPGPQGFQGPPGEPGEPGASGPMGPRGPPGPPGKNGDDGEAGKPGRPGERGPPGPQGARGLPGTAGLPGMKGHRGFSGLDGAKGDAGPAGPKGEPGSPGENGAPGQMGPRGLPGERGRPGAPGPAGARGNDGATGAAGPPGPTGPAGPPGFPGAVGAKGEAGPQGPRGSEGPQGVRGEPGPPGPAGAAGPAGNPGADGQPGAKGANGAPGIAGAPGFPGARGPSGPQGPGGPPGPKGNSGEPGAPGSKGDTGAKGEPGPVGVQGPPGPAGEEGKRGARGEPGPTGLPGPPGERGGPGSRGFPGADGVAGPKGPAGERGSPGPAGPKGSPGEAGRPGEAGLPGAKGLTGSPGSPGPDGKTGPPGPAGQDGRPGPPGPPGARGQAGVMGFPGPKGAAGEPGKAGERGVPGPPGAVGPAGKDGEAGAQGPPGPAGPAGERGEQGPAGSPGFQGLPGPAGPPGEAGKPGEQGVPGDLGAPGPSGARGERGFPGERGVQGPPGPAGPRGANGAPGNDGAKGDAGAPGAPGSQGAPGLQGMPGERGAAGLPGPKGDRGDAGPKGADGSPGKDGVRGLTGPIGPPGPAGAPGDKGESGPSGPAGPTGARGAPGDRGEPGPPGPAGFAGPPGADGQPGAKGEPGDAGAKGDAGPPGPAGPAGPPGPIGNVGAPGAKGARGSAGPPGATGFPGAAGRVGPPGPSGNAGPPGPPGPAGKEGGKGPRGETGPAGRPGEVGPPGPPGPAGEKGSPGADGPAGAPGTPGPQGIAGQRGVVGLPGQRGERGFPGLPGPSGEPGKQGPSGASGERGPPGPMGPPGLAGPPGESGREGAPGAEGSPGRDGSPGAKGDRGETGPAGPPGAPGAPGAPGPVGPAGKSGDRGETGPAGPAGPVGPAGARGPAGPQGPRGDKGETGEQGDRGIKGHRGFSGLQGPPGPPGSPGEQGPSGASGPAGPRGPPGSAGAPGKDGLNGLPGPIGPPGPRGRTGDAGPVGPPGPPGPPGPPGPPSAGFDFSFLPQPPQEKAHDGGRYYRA
Sequence of Synthetic human type I collagen (chain, as listed by the source, chain 2 of 2): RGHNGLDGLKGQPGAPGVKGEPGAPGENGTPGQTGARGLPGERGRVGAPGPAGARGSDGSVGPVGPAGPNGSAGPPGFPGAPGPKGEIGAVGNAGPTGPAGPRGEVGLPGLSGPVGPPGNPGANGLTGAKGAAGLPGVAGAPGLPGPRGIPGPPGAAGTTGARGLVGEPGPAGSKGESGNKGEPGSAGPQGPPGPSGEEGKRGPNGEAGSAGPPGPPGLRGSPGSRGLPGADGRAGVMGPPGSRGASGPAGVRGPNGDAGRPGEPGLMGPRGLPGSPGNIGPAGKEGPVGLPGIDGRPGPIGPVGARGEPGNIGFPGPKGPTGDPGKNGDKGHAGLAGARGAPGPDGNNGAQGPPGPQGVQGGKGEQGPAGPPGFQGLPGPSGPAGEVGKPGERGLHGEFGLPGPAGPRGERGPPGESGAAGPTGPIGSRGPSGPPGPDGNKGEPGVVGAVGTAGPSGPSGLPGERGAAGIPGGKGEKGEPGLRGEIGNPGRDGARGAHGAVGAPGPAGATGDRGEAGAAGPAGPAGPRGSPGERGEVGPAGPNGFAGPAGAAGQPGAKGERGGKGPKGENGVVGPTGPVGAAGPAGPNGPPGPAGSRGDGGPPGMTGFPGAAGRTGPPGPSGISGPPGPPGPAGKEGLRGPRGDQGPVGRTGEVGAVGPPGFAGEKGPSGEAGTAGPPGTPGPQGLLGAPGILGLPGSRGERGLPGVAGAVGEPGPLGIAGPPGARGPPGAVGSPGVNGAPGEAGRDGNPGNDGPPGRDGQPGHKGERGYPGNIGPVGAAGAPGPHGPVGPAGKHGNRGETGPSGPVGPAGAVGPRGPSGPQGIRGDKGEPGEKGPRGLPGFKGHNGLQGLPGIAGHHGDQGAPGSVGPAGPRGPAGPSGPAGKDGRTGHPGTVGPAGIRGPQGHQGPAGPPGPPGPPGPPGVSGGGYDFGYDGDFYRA

## MMP-8 (collagenase 2, neutrophil collagenase)
[1]
  cleavage of collagen (SDS-PAGE after 1, 2 and 7 days at 37 C): both synthetic human type I and type III collagen were cleaved by MMP-1 (FIG. 1A) and MMP-8 (FIG. 1B)
[2]
  cleavage of collagen (SDS-PAGE after 1, 2 and 7 days at 37 C): both synthetic human type I and type III collagen were cleaved by MMP-1 (FIG. 1A) and MMP-8 (FIG. 1B)
  extent of degradation of collagen (SDS-PAGE): Synthetic human type III collagen was degraded by MMP-1 to a greater extent than by MMP-8
